Reference: patent publication US20240360245A1 (Daiichi Sankyo, published 2024)
Numbering of substitutions follows the chain as printed.

T1: recombinant human GARP (R&D Systems, catalog number 6055-LR) (human, UniProt Q14392 20-627)
T1 construct: Bought soluble protein; In the phage panning and Fab screening it was in part biotinylated; also called antigen
T1 sequence: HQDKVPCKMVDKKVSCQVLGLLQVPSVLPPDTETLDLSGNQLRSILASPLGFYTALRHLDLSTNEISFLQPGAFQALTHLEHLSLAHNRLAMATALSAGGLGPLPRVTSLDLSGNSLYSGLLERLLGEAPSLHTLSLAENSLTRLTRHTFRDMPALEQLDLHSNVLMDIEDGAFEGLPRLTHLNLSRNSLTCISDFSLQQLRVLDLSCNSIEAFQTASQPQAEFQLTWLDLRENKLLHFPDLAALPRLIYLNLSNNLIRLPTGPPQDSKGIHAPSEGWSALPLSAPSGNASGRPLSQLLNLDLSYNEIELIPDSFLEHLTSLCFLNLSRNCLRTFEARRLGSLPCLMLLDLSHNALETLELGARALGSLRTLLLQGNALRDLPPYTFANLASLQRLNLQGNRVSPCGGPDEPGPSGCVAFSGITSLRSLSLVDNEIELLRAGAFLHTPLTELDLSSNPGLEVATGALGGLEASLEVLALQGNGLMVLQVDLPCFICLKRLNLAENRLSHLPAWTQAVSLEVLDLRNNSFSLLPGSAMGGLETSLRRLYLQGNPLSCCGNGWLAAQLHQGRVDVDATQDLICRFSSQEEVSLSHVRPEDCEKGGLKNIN

T2: human GARP expressed on cells (GARP-transfected HEK-293T cells; endogenous on L428 cells and activated Treg) (human, UniProt Q14392 20-662)
T2 construct: The transfected cells carry a human GARP cDNA clone (Origene) in pcDNA3.1(+); also called hGARP; endogenously expressed GARP
T2 sequence: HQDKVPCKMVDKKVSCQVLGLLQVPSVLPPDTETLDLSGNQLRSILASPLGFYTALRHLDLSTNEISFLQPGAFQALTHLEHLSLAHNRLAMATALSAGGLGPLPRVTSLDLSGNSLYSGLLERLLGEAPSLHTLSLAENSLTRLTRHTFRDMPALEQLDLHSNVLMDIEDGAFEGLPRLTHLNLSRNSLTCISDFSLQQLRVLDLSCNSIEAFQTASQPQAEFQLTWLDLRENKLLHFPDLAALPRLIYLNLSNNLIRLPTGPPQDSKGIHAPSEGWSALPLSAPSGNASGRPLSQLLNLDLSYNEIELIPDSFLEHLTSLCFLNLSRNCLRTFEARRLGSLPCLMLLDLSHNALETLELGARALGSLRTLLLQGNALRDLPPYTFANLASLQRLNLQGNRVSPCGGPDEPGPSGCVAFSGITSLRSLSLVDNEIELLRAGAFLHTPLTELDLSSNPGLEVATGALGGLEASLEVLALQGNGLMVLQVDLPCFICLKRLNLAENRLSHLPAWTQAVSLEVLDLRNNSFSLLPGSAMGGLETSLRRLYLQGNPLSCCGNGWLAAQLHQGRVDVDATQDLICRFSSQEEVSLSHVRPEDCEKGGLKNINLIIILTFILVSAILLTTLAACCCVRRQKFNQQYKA

B1: 110F antibody (antibody, human IgG1, lambda, V domains shown)
VH: EVQLLESGGGLVQPGGSLRLSCAASGFTFSSYGMHWVRQAPGKGLEWVAGISWNSAITVYADSVKGRFTISRDNSKNTLYLQMNSLRAEDTAVYYCAKDAGGRYSGSYYFDYWGQGTLVTVSS
VL: QSVLTQPPSASGTPGQRVTISCTGSSSNIGAGYDVHWYQQLPGTAPKLLIYGNSNRPSGVPDRFSGSKSGTSASLAISGLRSEDEADYYCQSYDRSLNWVFGGGTKLTVLG
B2: 110F Fab (ELISA-positive clone from the n-CoDeR Fab phage library) (Fab, V domains shown)
VH: B1 VH
VL: B1 VL
notes: Fab produced in Escherichia coli and tested as culture supernatant
B3: humanized anti-human GARP antibody h198D-H3L4 (antibody, human IgG1, kappa, V domains shown)
VH: EVQLVESGGGLVKPSQTLSLTCTVSGFSLTSFHVSWVRQPPGKGLEWIATISSGGGTYYNPSLKSRVTISRDTSKNQVSLKLSSVTAADTAVYYCARISGWGHYYVMDVWGQGTLVTVSS
VL: DIQMTQSPSSLSASVGDRVTITCQASEDIYSGLAWYQQKPGKSPKLLIYGAGSLQDGVPSRFSGSGSGTHYTLTISSLQPEDFATYFCQQGLKFPLTFGQGTKVEIKR
notes: Produced in Potelligent CHOK1SV cells; also called MACA-1983a
B4: human chimeric 151D antibody c151D (antibody, human IgG1, V domains shown)
VH: EVQLVESGGGLVQPGRSKKLSCSASGFTFSNYYMAWVRQAPTQGLEWVASIGTVGGNTYYRDSVKGRFTISRDDAKSTLYLQMDSLRSEDTATYYCAREDYGGFPHWGQGVMVTVSS
VL: NIVMTQSPTSMFISVGDRVTMNCKASQNVGTNVDWYQQKTGQSPKLLIYGASNRYTGVPDRFTGSGSGTDFTLTISNMQAEDLAVYDCLQYKYNPYTFGTGTKLELNR
B5: humanized anti-human GARP antibody h151D-H1L1 (antibody, human IgG1, kappa, V domains shown)
VH: EVQLVESGGGLVQPGGSLRLSCAASGFTFSNYYMAWVRQAPGKGLEWVSSIGTVGGNTYYADSVKGRFTISRDDSKNTLYLQMNSLRAEDTAVYYCAREDYGGFPHWGQGTLVTVSS
VL: NIVMTQSPDSLAVSLGERATINCKASQNVGTNVDWYQQKPGQSPKLLIYGASNRYTGVPDRFSGSGSGTDFTLTISSLQAEDVAVYDCLQYKYNPYTFGQGTKVEIKR
notes: Produced in Potelligent CHOK1SV cells; also called MACA-1511a
B6: humanized anti-human GARP antibody h151D-H4L4 (antibody, human IgG1, kappa, V domains shown)
VH: B5 VH with S49A, A61R, N77S
VL: B5 VL with D9S, A12S, V13A, L15V, E17D, A19V, Q42K, A80P, V83F, V85T
notes: Produced in Potelligent CHOK1SV cells; also called MACA-1514a
B7: human chimeric 198D antibody c198D (antibody, human IgG1, V domains shown)
VH: QVQLRESGPGLVQPSQTLSLTCTVSGFSLTSFHVSWVRQPPEKGLEWIATISSGGGTYYNSALKSRLSISRDTSKSQVFLKMSTLQTEDTAMYFCARISGWGHYYVMDVWGQGASVTVSS
VL: DIQMTQSPASLSGSLGETVTIQCQASEDIYSGLAWYQQKPGKSPQLLIYGAGSLQDGVPSRFSGGGSGTHYSLKISSMQTEDEGVYFCQQGLKFPLTFGSGTKLEIKR

Columns and labels:
[1] = target: human GARP expressed on cells (GARP-transfected HEK-293T cells; endogenous on L428 cells and activated Treg) (human) (UniProt Q14392); assay: flow cytometry on CD3/CD28 bead-activated human PBMC gated on CD4-positive cells, FITC-labeled anti-IgG secondary antibody against PE anti-Foxp3
[2] = target: human GARP expressed on cells (GARP-transfected HEK-293T cells; endogenous on L428 cells and activated Treg) (human) (UniProt Q14392); assay: flow cytometry on anti-CD3/anti-CD28 activated human PBMC, Alexa Fluor 647-labeled antibody against PE anti-Foxp3; the panel Antibody not-added prints 0.13
[3] = target: human GARP expressed on cells (GARP-transfected HEK-293T cells; endogenous on L428 cells and activated Treg) (human) (UniProt Q14392); assay: flow cytometry on anti-CD3/anti-CD28 activated human PBMC, Alexa Fluor 647-labeled antibody against PE anti-Foxp3; the panel Antibody not-added prints 0.18
[4] = target: T1, recombinant human GARP (R&D Systems, …); assay: ELISA on plate-coated human GARP (1 ug/mL), 50 nM antibody, HRP anti-human Fc, chemiluminescence
Experimental: The plate was washed with the ELISA buffer three times. […] On the other hand, 100 μL of HRP-labeled anti-mouse Fc antibody (R&D Systems), which had been 5000-fold diluted with PBS, was added to the wells treated with mouse anti-GARP antibody and mouse IgG. The plate was incubated at room temperature for 1 hour with mixing.

[5] = target: T1, recombinant human GARP (R&D Systems, …); assay: ELISA, Fab in E. coli culture supernatant on coated or NeutrAvidin-captured biotinylated GARP
Experimental: 50 μL GARP, which had been diluted to 2 μg/mL with PBS (0.01 M phosphate buffered saline (pH 7.4) containing 0.138 M sodium chloride and 0.0027 M potassium chloride; Sigma-Aldrich), was added to each well of a 384-well Maxi-sorp plate (Black, Nunc), and it was then incubated overnight at 4° C. for coating the plate. Alternatively, 50 μL of NeutrAvidin (Life Technologies) which had been diluted to 1 μg/mL with PBS was added to such a 384-well Maxi-sorp plate for coating the plate (by incubating overnight at 4° C.). Thereafter, the plate was washed with an ELISA buffer (PBS (Sigma-Aldrich) supplemented with 0.05% Tween-20 (Bio-RAD)) three times, and biotinylated GARP was then added thereto (1 pmol/50 μL PBS/well), followed by incubation at room temperature for 1 hour with mixing. The plate was washed with ELISA buffer three times, was then blocked with Blocker Casein (Thermo Scientific), and was further washed with the ELISA buffer three times. Thereafter, a culture supernatant containing Fab produced by Escherichia coli was added, and the plate was then incubated at room temperature for 1 hour with mixing. […] Ten minutes later, chemiluminescence was measured using a plate reader (Envision 2104 Multilabel Reader, Perkin Elmer), and GARP-bound Fab was isolated.

[6] = target: T2, human GARP expressed on cells …; assay: flow cytometry on CD3/CD28 bead-activated human PBMC gated on CD4-positive cells, FITC-labeled anti-IgG secondary antibody against PE anti-Foxp3
[7] = target: T1, recombinant human GARP (R&D Systems, …); assay: SPR (Biacore T200), antibody captured on Protein A, GARP antigen as analyte, 1:1 fit
Experimental: The dissociation constant between each of the humanized anti-human GARP antibodies h151D-H1L1, h151D-H4L4 and h198D-H3L4 produced in Example 7)-10 and GARP was evaluated by using Biacore T200 (GE Healthcare Bioscience), according to a capture method, which comprises capturing the antibody as a ligand by the immobilized Protein A and then analyzing the dissociation constant using an antigen as an analyte. HBS-EP+ (manufactured by GE Healthcare Bioscience) was used as a running buffer, and a Protein A Sensor Chip (manufactured by GE Healthcare Bioscience) was used as a sensor chip.
(§1) The human chimeric antibody (1 μg/mL) was added onto the chip at a rate of 10 μL/min for 20 seconds, and a dilution series solution (8 to 128 nM) of the antigen was added at a flow rate of 30 μl/min for 120 seconds. Subsequently, the dissociation was monitored for 480 seconds. As a regeneration solution, Glycine 1.5 (manufactured by GE Healthcare Bioscience) was added at a flow rate of 20 μl/min for 30 seconds.
1:1 Fitting model was used in data analysis, and the association rate constant ka, the dissociation rate constant kd, and the dissociation constant (KD; KD=kd/ka) were calculated.

[8] = target: T1, recombinant human GARP (R&D Systems, …); assay: SPR (Biacore T200), antibody captured on Protein A, recombinant human GARP as analyte, 1:1 fit
Experimental: The dissociation constant between the c151D or c198D produced in Example 6)-4 and human GARP was evaluated by using Biacore T200 (GE Healthcare Bioscience), according to a capture method, which comprises capturing the antibody as a ligand with the immobilized Protein A and then analyzing the dissociation constant using an antigen (recombinant human GARP: R&D Systems) as an analyte. HBS-EP+ (manufactured by GE Healthcare Bioscience) was used as a running buffer, and a Protein A Sensor Chip (manufactured by GE Healthcare Bioscience) was used as a sensor chip.
as §1, with “antigen was then added at” for “antigen was added at”
1:1 Fitting models were used in data analysis, and the association rate constant ka, the dissociation rate constant kd, and the dissociation constant (KD; KD=kd/ka) were calculated.

Molecule | percent of CD4-positive cells in Q2 (GARP-positive, Foxp3-positive) [6] [%] | percent of CD4-positive cells in Q3 (GARP-positive, Foxp3-negative) [6] [%] | Kd [7] [pM] | further results
human IgG (antibody) |  |  |  | percent of CD4-positive cells in Q2 (GARP-positive, Foxp3-positive) [1]: 0.039%; percent of CD4-positive cells in Q3 (GARP-positive, Foxp3-negative) [1]: 0.242%
Alexa Fluor 647-labeled anti-GARP antibody (G14D9, eBioscience) |  |  |  | percent of cells in the upper right quadrant (GARP-positive, Foxp3-positive) [2]: 4.19; percent of cells in the lower right quadrant (GARP-positive, Foxp3-negative) [3]: 0.81
B1 |  |  |  | binding result [4]: binds
B2 |  |  |  | binding result [5]: binds
B3 | 3.47 | 3.25 | 88 | 
B4 |  |  |  | Kd [8]: 470 pM
B5 | 3.54 | 2.41 | 1800 | 
B6 | 3.38 | 2.59 | 1200 | 
B7 |  |  |  | Kd [8]: 170 pM
